The numbers were not newly measured in PMC7850986, which cites them from elsewhere.

By Kd is commonly meant the free concentration of one partner at which half of the binding sites on the other are occupied at equilibrium, for simple one-to-one binding.

Data set [1] concerns the target IFNAR2 (Homo sapiens) (UniProt P48551).
In data set [2] the target is IFNAR1 (Homo sapiens) (UniProt P17181).
Sequence of UniProt P17181 (P17181 28-436): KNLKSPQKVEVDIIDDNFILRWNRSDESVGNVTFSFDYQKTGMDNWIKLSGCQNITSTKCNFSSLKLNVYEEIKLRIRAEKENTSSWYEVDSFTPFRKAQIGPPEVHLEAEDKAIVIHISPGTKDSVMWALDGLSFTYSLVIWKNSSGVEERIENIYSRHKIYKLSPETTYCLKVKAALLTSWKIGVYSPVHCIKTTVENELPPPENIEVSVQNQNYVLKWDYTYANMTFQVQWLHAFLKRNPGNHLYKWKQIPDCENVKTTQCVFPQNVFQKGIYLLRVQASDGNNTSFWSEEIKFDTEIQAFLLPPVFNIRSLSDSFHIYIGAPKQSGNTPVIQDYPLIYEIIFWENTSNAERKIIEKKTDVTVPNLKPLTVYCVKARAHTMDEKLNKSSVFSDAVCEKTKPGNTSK

Sequence of UniProt P48551 (P48551 27-243): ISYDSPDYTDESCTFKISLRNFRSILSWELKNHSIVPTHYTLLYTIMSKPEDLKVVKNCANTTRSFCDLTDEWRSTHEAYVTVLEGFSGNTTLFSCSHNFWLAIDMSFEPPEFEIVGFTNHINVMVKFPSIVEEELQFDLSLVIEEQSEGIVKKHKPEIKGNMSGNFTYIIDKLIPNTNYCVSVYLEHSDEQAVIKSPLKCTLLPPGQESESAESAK

Consider IFNβ (from UniProt P01574), for which the figures for the Kd in data set [1] and in data set [2] were 0.1 nM and 100 nM, respectively.
